# Columns and labels:
# [1] = biological target: CD19 surface antigen on Raji lymphoma target-cells (#CCL-86, ATCC) (UniProt P15391); test: cell-based or functional assay
# [2] = biological target: rhIL-18 (IL-18, #9124-IL-010, R&D Systems) (human) (UniProt Q14116); test: cell-based or functional assay
# UniProt Q14116, sequence (Q14116 37-193 limits assumed): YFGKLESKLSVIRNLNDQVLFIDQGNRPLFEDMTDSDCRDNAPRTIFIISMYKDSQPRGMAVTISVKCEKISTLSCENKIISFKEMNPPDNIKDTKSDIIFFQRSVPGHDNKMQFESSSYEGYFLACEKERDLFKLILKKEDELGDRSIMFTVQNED
# UniProt P15391, sequence (P15391 20-556 limits assumed): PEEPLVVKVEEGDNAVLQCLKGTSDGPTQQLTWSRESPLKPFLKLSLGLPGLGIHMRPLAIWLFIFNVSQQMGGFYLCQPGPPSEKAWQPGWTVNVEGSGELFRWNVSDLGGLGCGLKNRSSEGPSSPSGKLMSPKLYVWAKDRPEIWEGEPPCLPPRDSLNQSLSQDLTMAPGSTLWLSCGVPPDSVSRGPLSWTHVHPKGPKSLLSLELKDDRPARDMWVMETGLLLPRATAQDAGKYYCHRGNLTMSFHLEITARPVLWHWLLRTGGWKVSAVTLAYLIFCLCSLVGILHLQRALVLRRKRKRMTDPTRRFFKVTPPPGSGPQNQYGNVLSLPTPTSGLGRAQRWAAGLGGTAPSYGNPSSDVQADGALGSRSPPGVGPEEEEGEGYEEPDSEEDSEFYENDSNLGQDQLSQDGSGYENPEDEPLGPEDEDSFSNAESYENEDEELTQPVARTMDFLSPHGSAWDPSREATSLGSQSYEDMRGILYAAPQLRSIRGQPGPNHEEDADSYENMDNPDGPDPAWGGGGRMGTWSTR
"Mean concentration (pg/mL) of IFN-γ in culture medium, Tumor + CAR-T, day 1 [1] [pg/mL]","Mean cumulative concentration (pg/mL) of IFN-γ in culture medium, Tumor + CAR-T, day 2 [1] [pg/mL]","Mean cumulative concentration (pg/mL) of IFN-γ in culture medium, Tumor + CAR-T, day 3 [1] [pg/mL]","IL-18BP-mediated inhibition (%) of IFN-γ in Tumor + CAR-T + IL-18 + IL-12 culture, day 1 [2] [%]","IL-18BP-mediated inhibition (%) of IFN-γ in Tumor + CAR-T + IL-18 + IL-12 culture, day 2 [2] [%]","IL-18BP-mediated inhibition (%) of IFN-γ in Tumor + CAR-T + IL-18 + IL-12 culture, day 3 [2] [%]","IL-18BP-mediated inhibition (%) of IFN-γ in Tumor + CAR-T + IL-18 culture, day 1 [2] [%]","IL-18BP-mediated inhibition (%) of IFN-γ in Tumor + CAR-T + IL-18 culture, day 2 [2] [%]","IL-18BP-mediated inhibition (%) of IFN-γ in Tumor + CAR-T + IL-18 culture, day 3 [2] [%]","reduction of IFN-γ production boosted by rhIL-12 and rhIL-18, average over three days [2] [%]",Substance
6910,21500,32700,–,–,–,–,–,–,–,"CD19-specific CAR of CD19SCFV-CD28-4-1BB-CD3 CAR-T-cells (#PM-CAR1003-10M, ProMAB)"
–,–,–,82,79,75,100,92,79,80,"recombinant human IL-18BP (rhIL-18BP, Tadekinig alfa)"

# — patent US20220401476A1
